The values below come from paper PMC11903869, “Structure and function of the geldanamycin amide synthase from Streptomyces hygroscopicus” (Nature Communications, 2025).

Data set [1] addresses T1, GdmF (Streptomyces hygroscopicus, UniProt Q84G21).
T1 construct: full-length GdmF, N-terminal histidine hexamer
The data set is described as follows: microscale thermophoresis. It counts as binding. (In general: In MST a laser heats a spot of the sample, and binding alters the fluorescence response.)

Data set [2] deals with T1, GdmF. Briefly: X-ray crystal structure (cleaved group from SNAC thioesters). In kind it is binding.
Data set [3] deals with T1, GdmF. Briefly: X-ray crystal structure (cleaved group from pantetheine thioesters). It counts as binding.
Substrate in data set [4]: CC(=O)SCCNC(=O)CCNC(=O)[C@H](O)C(C)(C)CO
The data set is described as follows: purified protein, by the assay type. Also noted: Steady-state amide formation, thiol release from thioesters monitored with DTNB at 405 nm, 22 °C; kcat: unit: s^-1. The settings on record: pH 7.5; 22.0 °C. The method, then:
(§1) The enzymatic activity of ShGdmF was measured by monitoring the release of free thiols with 5,5’-dithio-bis(2-nitrobenzoic acid) (DTNB) at 405 nm in 100 mM sodium phosphate buffer, pH 7.5. 2 µM ShGdmF was pre-incubated with 2 mM aminophenol 32 or 33 and 100 µM DTNB at 22 °C for 5 min in a 96-well plate before increasing concentrations of thioester 11a-c or 13a-c were added to each well. Measurements were performed using a Multiskan FC Microplate Photometer (Thermo Fisher Scientific) at 22 °C. Each measurement was performed in triplicate. […] The enzyme is able to catalyze the amide synthesis of SNAC and pantetheine thioesters directly in vitro and in the absence of the cellular environment (Fig. 6e + 6f). The kinetic parameters KM of GdmF for substrate conversion range from submillimolar to millimolar at maximum rates (kcat) of 0.001 to 0.02 s^−1. […] For the SNAC thioesters, an increase in kcat/KM with increasing chain length was observed, whereas in the case of the pantetheine thioesters, a decrease in catalytic efficiency with longer acyl substrates was observed. In terms of kcat values, the activity of GdmF is similar to that of the related MsNAT.

Substrate in data set [5]: C/C=C/C(=O)SCCNC(C)=O
Briefly: purified protein, by the assay type. The settings on record: pH 7.5; 22.0 °C. Details: Steady-state amide formation, thiol release from thioesters monitored with DTNB at 405 nm, 22 °C; kcat: unit: s^-1. As for the experimental part: as §1

Substrate in data set [6]: CC/C=C/C(=O)SCCNC(=O)CCNC(=O)[C@H](O)C(C)(C)CO
The data set is described as follows: purified protein, by the assay type. Also noted: Steady-state amide formation, thiol release from thioesters monitored with DTNB at 405 nm, 22 °C; kcat: unit: s^-1. The settings on record: pH 7.5; 22.0 °C. As for the experimental part:
as §1

Substrate in data set [7]: C/C=C(\C)C(=O)SCCNC(C)=O
Briefly: purified protein, by the assay type. Also noted: Steady-state amide formation, thiol release from thioesters monitored with DTNB at 405 nm, 22 °C; kcat: unit: s^-1. The settings on record: pH 7.5; 22.0 °C. As for the experimental part: as §1

Substrate in data set [8]: CC(=O)SCCNC(=O)CCNC(=O)[C@H](O)C(C)(C)CO
Briefly: purified protein, by the assay type. The settings on record: pH 7.5; 22.0 °C. Also noted: Steady-state amide formation, thiol release from thioesters monitored with DTNB at 405 nm, 22 °C; kcat: unit: s^-1. As for the experimental part: as §1
The source holds these as a separate data set.

Substrate in data set [9]: C/C=C/C(=O)SCCNC(C)=O
The data set is described as follows: purified protein, by the assay type. Details: Steady-state amide formation, thiol release from thioesters monitored with DTNB at 405 nm, 22 °C; kcat: unit: s^-1. The settings on record: pH 7.5; 22.0 °C. As for the experimental part: as §1
The source holds these as a separate data set.

Substrate in data set [10]: CC/C=C/C(=O)SCCNC(=O)CCNC(=O)[C@H](O)C(C)(C)CO
The data set is described as follows: purified protein, by the assay type. Details: Steady-state amide formation, thiol release from thioesters monitored with DTNB at 405 nm, 22 °C; kcat: unit: s^-1. The settings on record: pH 7.5; 22.0 °C. As for the experimental part:
as §1
The source holds these as a separate data set.

Substrate in data set [11]: C/C=C(\C)C(=O)SCCNC(C)=O
Briefly: purified protein, by the assay type. Also noted: Steady-state amide formation, thiol release from thioesters monitored with DTNB at 405 nm, 22 °C; kcat: unit: s^-1. The settings on record: pH 7.5; 22.0 °C. As for the experimental part:
as §1
This is another data set of the same source.

One may read the Kd as the constant that tells how readily two partners part at equilibrium. `CC(=O)SCCNC(=O)CCNC(=O)[C@H](O)C(C)(C)COP(=O)(O)OP(=O)(O)OC[C@H]1O[C@@H](n2cnc3c(N)ncnc32)[C@H](O)[C@@H]1OP(=O)(O)O` [compound 5, acetyl-CoA] yielded a dissociation constant Kd in data set [1] of 2960 µM.
Regarding `CC(=O)NCCS` [N-acetylcysteamine], the “X-ray crystal structure (cleaved group from SNAC thioesters)” value in [2] is “we found densities for the cleaved SNAC or pantetheine groups, instead”.
With `CC(C)(CO)[C@@H](O)C(=O)NCCC(=O)NCCS` [pantetheine], the “X-ray crystal structure (cleaved group from pantetheine thioesters)” value in data set [3] was “Crystal structure of GdmF with bound pantetheine, and (b) N-acetylcysteamine (SNAC) in the active site cleft”.
In the case of `C/C=C(\C)C(=O)SCCNC(C)=O` [11b, SNAC ester 11b], binding in [1] was put at a Kd of 1160 µM.

B1: GdmF (Streptomyces hygroscopicus) (protein)
chain: MFDVAKYLRRIGVEGTPPPTLDTLRHLHKRHLMAVPYDNSTAPDRLPASRHLTNVPLDLVFGHVVTEGHGGVCYELNRLFHTLLAELGYDVRMVAAAVRQANGTFGPEREHTFDLVHLDGRTHLVDVGFPGPSYSEPLYLSEEEQHQYGCSYRVTEHDGYRVVERRPKGSDWQPVYRFRPELADPSGWDAVRLDSLDDYAQDSVLAGTTFRSRATDNGKIVLIGRRYFTVEDGVERTKVLVKADEFQDVVDLILAGA
notes: full-length GdmF, N-terminal histidine hexamer
The term Km denotes the substrate concentration at which the rate is half of its maximum. By kcat is commonly meant the number of substrate molecules converted per active site and unit of time at saturation. One may read the kcat/Km as the turnover number divided by the Michaelis constant. As to B1, the Km turned out to be 6.4136 ± 2.0704 mM in data set [4]; 0.8581 ± 0.2327 mM in data set [5]; 1.1368 ± 0.1369 mM in data set [6]; 2.735 ± 0.6103 mM in data set [7]; 3.6483 ± 2.8127 mM in [8]; 1.8651 ± 0.2537 mM in data set [9]. The Michaelis-Menten constant (Km) in data set [10] came to 8.2677 ± 1.6107 mM; in [11] it was 6.9024 ± 4.1426 mM. In addition, the kcat in [4] stood at 0.0164 ± 0.0039 s⁻¹; in data set [5], 0.0016 ± 0.00019 s⁻¹; in [6], 0.0027 ± 0.00013 s⁻¹; in data set [7], 0.0071 ± 0.0007 s⁻¹; in data set [8], 0.0075 ± 0.0051 s⁻¹; in [9], 0.0032 ± 0.00026 s⁻¹. The results for the kcat in data set [10] and in data set [11] were 0.0084 ± 0.0013 s⁻¹ and 0.012 ± 0.0058 s⁻¹, respectively. The catalytic efficiency (kcat/Km) in [4] was 2.56 M⁻¹ s⁻¹; in data set [5], 1.87 M⁻¹ s⁻¹; in [6], 2.37 M⁻¹ s⁻¹; in data set [7] it was 2.6 M⁻¹ s⁻¹; in [8], 2.06 M⁻¹ s⁻¹; in data set [9], 1.72 M⁻¹ s⁻¹. The values for the catalytic efficiency (kcat/Km) in data set [10] and in [11] were 1.02 M⁻¹ s⁻¹ and 1.74 M⁻¹ s⁻¹, respectively.
